Assay results as given in patent US20220281980A1.
Where “and” joins values, the source holds several entries; their conditions need not be identical. Identical values can stand only once.

Experiments:
[1] = molecular target: human MICA/B endogenously expressed on A2058 cells (MICA alleles *008/*018) (human) (UniProt Q29983); assay: flow cytometry, tumor cells with endogenous MICA/B
[2] = molecular target: overexpressed human MICA*008 and MICB*005 on CHO cells; assay: Scatchard analysis, 125I-MICA.36 on transduced CHO cells
[3] = molecular target: overexpressed cyno MICA/B (CHO clones #4 and #6); assay: as above

B1: 19G6 (antibody, V domains shown)
VH: QVQLVESGGGVVQPGRSLRLSCAASGFTFSNYAMHWVRQAPGEGLEWVALIWYDGSNKFYGDSVKGRFTISRDNSKNTLYLQMNSLSAEDTAVYYCAREGSGHYWGQGTLVTVSS
VL: AIQLTQSPSSLSASVGDRVTITCRASQGISSALAWYQQKPGKVPKSLIYDASSLESGVPSRFSGSGSGTDFTLTISSLQPEDFATYYCQQFNSYPITFGQGTRLEIK
How did the EC50 [1] turn out when B1 was run?
The EC50 was 5.39 nM.

B2: MICA.36 (antibody, V domains shown)
VH: QVQLVESGGGVVQPGRSLRLSCAASGFTFSNYAMHWVRQAPGEGLEWVALIWYDGSNKFYGDSVKGRFTISRDNSKNTLYLQMNSLSAEDTAVYYCAREGSGHYWGQGTLVTVSS
VL: AIQLTQSPSSLSASVGDRVTITCRASQGISSALAWYQQKPGKVPKSLIYDASSLESGVPSRFSGSGSGTDFTLTISSLQPEDFATYYCQQFNSYPITFGQGTRLEIK
Which Kd [2] does the source give for B2 here?
The Kd was 1 to 2 nM.

What about the Kd [3] of the same binder?
Its Kd is 5 to 11 nM.

B3: 16A5 (antibody, V domains shown)
VH: QVQLVESGGDVVQPGRSLRLSCAASGFTFSNYNIHWVRQAPGKGLEWVAVIRYDGINKYYADSVKGRFIISRDNSKNTLYLQMNSLRAEDTAVYYCASGPPDAFNIWGQGTMVTVSS
VL: AIQLTQSPSSLSASVGDRVTITCRASQGISSALAWYQQKPGKVPKSLIYDASSLESGVPSRFSGSGSGTDFTLTISSLQPEDFATYYCQQFNSYPITFGQGTRLEIK
For B3, which EC50 [1] is on record?
The EC50 was 7.68 nM and 10.9 nM.
